Values joined by “and” are separate entries in the source; they are usually repeats but may differ in a detail not shown here. Equal values may be shown once.
Target: T1, human CD38 (human, UniProt P28907 1-300)
T1 sequence: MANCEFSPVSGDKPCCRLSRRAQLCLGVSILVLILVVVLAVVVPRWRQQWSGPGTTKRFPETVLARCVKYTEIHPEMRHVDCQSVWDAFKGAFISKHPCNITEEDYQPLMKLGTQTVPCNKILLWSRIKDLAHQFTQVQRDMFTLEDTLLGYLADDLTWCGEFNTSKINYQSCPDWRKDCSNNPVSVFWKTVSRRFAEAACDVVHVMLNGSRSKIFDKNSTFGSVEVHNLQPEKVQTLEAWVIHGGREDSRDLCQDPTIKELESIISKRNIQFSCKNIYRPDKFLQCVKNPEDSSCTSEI
Assay: cell-based or functional assay

Chimeric OKT10 (antibody)
ADCC EC50 [nM], LP-1: 5.23 nM | ADCC EC50 [nM], RPMI8226: 4.1 nM

B1: MOR03077 human IgG1 (antibody, V domains shown)
VH: QVQLVQSGAEVKKPGASVKVSCKASGYTFTSYSINWVRQAPGQGLEWMGYIDPNRGNTNYAQKFQGRVTMTRDTSISTAYMELSSLRSEDTAVYYCAREYIYFIHGMLDFWGQGTLVTVSS
VL: DIVMTQSPLSLPVTPGEPASISCRSSQSLLFIDGNNYLNWYLQKPGQSPQLLIYLGSNRASGVPDRFSGSGSGTDFTLKISRVEAEDVGVYYCQQYSSKSATFGQGTKVEIKR
ADCC EC50 [nM], LP-1: 0.6 nM | ADCC EC50 [nM], RPMI8226: 0.08 nM | CDC EC50 [nM], CHO-transfectants: 0.8 nM and 0.94 nM

B2: MOR03080 human IgG1 (antibody, V domains shown)
VH: QVQLVESGGGLVQPGGSLRLSCAASGFTFSSYGMHWVRQAPGKGLEWVSNIYSDGSNTFYADSVKGRFTISRDNSKNTLYLQMNSLRAEDTAVYYCARNMYRWPFHYFFDYWGQGTLVTVSS
VL: DIELTQPPSVSVAPGQTARISCSGDNIGNKYVSWYQQKPGQAPVVVIYGDNNRPSGIPERFSGSNSGNTATLTISGTQAEDEADYYCSSYDSSYFVFGGGTKLTVLG
ADCC EC50 [nM], LP-1: 0.17 nM | ADCC EC50 [nM], RPMI8226: 0.05 nM | CDC EC50 [nM], CHO-transfectants: 3.2 nM and 2.93 nM

B3: MOR03100 human IgG1 (antibody, V domains shown)
VH: QVQLVESGGGLVQPGGSLRLSCAASGFTFSSNGMSWVRQAPGKGLEWVSNISYLSSSTYYADSVKGRFTISRDNSKNTLYLQMNSLRAEDTAVYYCARFYGYFNYADVWGQGTLVTVSS
VL: DIELTQPPSVSVAPGQTARISCSGDNIGHYYASWYQQKPGQAPVLVIYRDNDRPSGIPERFSGSNSGNTATLTISGTQAEDEADYYCQSYDYLHDFVFGGGTKLTVLG
ADCC EC50 [nM], LP-1: 1 nM | ADCC EC50 [nM], RPMI8226: 0.28 nM | CDC EC50 [nM], CHO-transfectants: 10.9 nM and 13.6 nM

B4: MOR03079 human IgG1 (antibody, V domains shown)
VH: QVQLVESGGGLVQPGGSLRLSCAASGFTFSNYGMHWVRQAPGKGLEWVSNIRSDGSWTYYADSVKGRFTISRDNSKNTLYLQMNSLRAEDTAVYYCARRYWSKSHASVTDYWGQGTLVTVSS
VL: DIQMTQSPSSLSASVGDRVTITCRASQDISAFLNWYQQKPGKAPKLLIYKVSNLQSGVPSRFSGSGSGTDFTLTISSLQPEDFATYYCQQAYSGSITFGQGTKVEIKR
ADCC EC50 [nM], LP-1: 0.09 nM | ADCC EC50 [nM], RPMI8226: 0.04 nM

Source: patent publication EP1720907B1 (MorphoSys AG, dated 2015)
